According to the supplement of paper PMC10567573:

B1: RAB40A (parent)
chain: NWLGRPSKVLSLQDLCCRTIVSCT
B2: CLPTM1 (parent)
chain: LGCYAVYSLLYLEHKGWYSWVLSM

Variants of: B1
Assay: protein stability index of a GFP-peptide fusion (GPS, HEK-293T) (PSI 1-6); higher = more stable
Details: c terminus: a fixed tail appended
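Further: lentivirally expressed fusions sorted by FACS into six bins by GFP to DsRed ratio, PSI derived from sequencing read proportions per bin multiplied by bin number.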

Protein stability index: each site, then its substitutions
R18: K 2.65 | A 2.03 | G 2 | S 2.58 | M 1.72 | W 1.83 | N 2.5 | F 1.87 | Q 2.26 | C 2.35 | D 1.99 | I 1.68 | T 2.26 | H 1.98 | Y 1.73 | E 2.49 | P 1.61 | L 2.11 | V 2.39
T24: L 2.31 | M 2.27 | V 2.28 | H 2.64 | A 2.5 | Y 2.13 | D 2.85 | K 3.2 | S 2.62 | Q 3.19 | G 2.6 | E 2.58 | P 3.02 | I 1.58 | F 2.63 | C 2.07 | N 2.87 | W 2.2 | R 2.89
I20: F 1.89 | Y 2.1 | R 2.54 | K 2.62 | P 2.42 | Q 2.26 | G 2.47 | D 2.4 | N 1.91 | H 2.48 | E 2.04 | S 2.08 | W 2.18 | M 2.83 | C 2.32 | V 2.14 | A 1.94 | T 1.73 | L 2.74
L15: C 1.89 | R 2.51 | Q 2.42 | V 1.72 | F 1.45 | G 1.74 | S 1.96 | Y 2.15 | I 2.31 | P 1.62 | N 2.18 | A 2.15 | W 2.1 | M 2.13 | T 1.92 | E 2.15 | D 2.02 | K 2.16 | H 1.99
C17: Q 3.09 | E 3.08 | P 1.74 | T 3.23 | K 3.26 | F 2.53 | S 2.75 | W 2.03 | V 2.6 | R 3.23 | H 2.88 | L 2.77 | I 2.54 | G 2.34 | A 2.66 | N 2.95 | D 2.79 | Y 2.22 | M 2.54
C23: M 2.33 | P 2.68 | Q 3.46 | R 2.92 | Y 2.35 | S 2.95 | E 2.8 | D 3.12 | G 3.28 | F 2.33 | W 2.67 | V 2.21 | I 2.33 | T 2.66 | A 2.74 | K 2.92 | L 2.37 | H 2.69 | N 2.93
C16: Y 1.44 | D 2.2 | F 2.44 | N 1.61 | R 1.75 | V 2.19 | L 2.02 | T 2.06 | M 1.98 | W 2.79 | A 2.5 | S 2.31 | Q 1.51 | P 2.02 | E 1.9 | H 1.58 | I 2.17 | K 2.25 | G 1.44
S22: M 2.61 | F 2.47 | N 2.69 | A 2.23 | W 2.04 | Q 2.59 | L 2.31 | K 2.75 | E 2.57 | R 2.77 | Y 1.95 | D 2.83 | V 1.77 | I 1.88 | T 2.4 | C 2.59 | G 2.57 | P 2 | H 2.26
T19: C 2.04 | L 2.16 | G 2.07 | E 2.53 | F 2.26 | P 1.86 | K 2.69 | A 2.52 | R 2.19 | N 2.91 | Q 2.31 | M 2.27 | D 2.64 | V 2.22 | I 2.6 | S 2.51 | W 1.97 | H 2.41 | Y 2.23
V21: D 3.02 | K 2.55 | I 2.31 | M 2.66 | S 2.77 | Q 2.8 | H 2.44 | A 2.64 | P 2.89 | C 2.41 | G 2.64 | R 3.04 | F 2.43 | Y 2.08 | N 2.8 | W 2.46 | L 2.04 | E 1.88 | T 2.58
D14: Y 2.04

Variants of: B2
Assay: as above
Details: c terminus: a fixed tail appended

Protein stability index, by site and new letter:
L1: Q 4.62 | R 3.05 | Y 3.77
V6: N 2.73 | W 1.84 | S 2.76 | C 4.28 | K 2.83 | R 2.3 | I 3.34
V21: G 2.62 | E 3.46 | T 2.31 | K 2.12 | P 3.65 | Y 2.63 | F 2.12 | M 2.45 | L 2.77
W17: N 4.13 | L 2.96 | E 2.81
Y4: C 3.33 | G 3.18 | A 4.36 | Q 2.4 | R 2.91 | L 3.04 | N 3.2 | P 3.14 | T 3.11
E13: I 4.56 | T 3.83 | L 3.4 | A 1.11 | P 3.78
M24: R 2.3 | I 2.67 | Y 2.41 | S 2.46 | F 4.41 | G 4.14
L10: D 3.21 | S 1.76 | Y 2.5 | H 2.84 | C 2.87 | Q 3.9 | I 3.43 | W 2.32
Y11: E 3.13 | D 2.36 | N 2 | W 2.68 | T 2.69 | Q 3.22
C3: N 3.61 | F 2.37 | W 2.24 | S 3.55 | I 2.62 | T 2.52 | E 3.26 | G 2.35 | D 2.59
K15: F 2.41 | T 4.26 | W 2.46 | G 1.81 | A 1.32 | L 3.23 | M 3.9 | N 3.11
S8: G 4.38 | A 2.25
L22: K 2.01 | E 3.17 | Q 2.18 | I 3.34
Y18: W 3.03 | C 1.27 | Q 2.56 | V 2.95 | F 2.61 | P 3.5 | N 3.45 | H 2.44 | K 2.08
Y7: E 2.54 | Q 2.39
G16: V 2.84 | T 2.75 | E 2.88 | D 2.47 | P 2.75
S23: P 4.18 | F 2.11 | W 3.03 | G 2.17 | Y 2.49 | C 3.78 | H 2.63 | Q 3.11 | R 2.26
H14: T 3.37 | D 2.41 | A 3.68 | L 2.4 | S 2.43 | Y 3.4 | C 2.45 | N 2.58
L12: H 2.99 | K 3.11 | I 3.36 | R 4.16 | V 2.89 | W 2.4 | C 2.68
S19: E 2.27 | T 3.99
G2: I 2.87 | W 2.07 | Q 3.29 | F 2.72 | E 3.26 | P 2.76 | N 3.83 | S 1.47 | T 3.4
L9: V 1.94 | M 2.92 | C 2.03 | R 2.18 | S 2.77
A5: F 3.69 | N 4.03 | S 3.5 | K 2.91
W20: V 3.55 | N 3.58 | M 3.21 | S 2.21
